Laboratory results from article PMC4225172.

Key:
[1] = target: BoLA-3*00201 (JSP.1) heavy chain folded with recombinant human β2m (cattle (Holstein) | human) (UniProt P61769); assay: AlphaScreen or HTRF
[2] = target: BoLA-1*02301 (D18.4) heavy chain folded with recombinant human β2m (cattle (Holstein) | human) (UniProt P61769); assay: AlphaScreen or HTRF
[3] = target: BoLA-2*01201 (T2A) heavy chain folded with 125I-radiolabeled bovine met-β2m (cattle (Holstein) | bovine) (UniProt P01888); assay: scintillation proximity assay
[4] = target: BoLA-2*01201 (T2A) heavy chain folded with recombinant human β2m (cattle (Holstein) | human) (UniProt P61769); assay: AlphaScreen or HTRF
[5] = target: BoLA-3*00201 (JSP.1) heavy chain folded with 125I-radiolabeled bovine met-β2m (cattle (Holstein) | bovine) (UniProt P01888); assay: scintillation proximity assay
[6] = target: BoLA-T2C heavy chain folded with recombinant human β2m (cattle (Bos taurus×Bos indicus) | human) (UniProt P61769); assay: AlphaScreen or HTRF
[7] = target: BoLA-3*00101 (AW10) heavy chain folded with 125I-radiolabeled bovine met-β2m (cattle (Boran) | bovine) (UniProt P01888); assay: scintillation proximity assay
[8] = target: BoLA-1*02301 (D18.4) heavy chain folded with 125I-radiolabeled bovine met-β2m (cattle (Holstein) | bovine) (UniProt P01888); assay: scintillation proximity assay

Substance Ta9 epitope […] (peptide) has a Kd [1] of 309 nM and a Kd [2] of 74 nM.
With Tp2 49–59 epitope […] (peptide) the half-life of the pBoLA-I complex [3] was 2 h and the EC50 [4] was 364 nM.
Tp2 96–104 epitope […] (peptide) gave a half-life of the pBoLA-I complex [5] of 4 h, an EC50 [1] of 767 nM and an EC50 [6] of 144 nM.
For Tp2 98–106 epitope […] (peptide), the half-life of the pBoLA-I complex [3] was 3 h.
Tp4 328–336 epitope … (peptide) was tested, and the half-life of the pBoLA-I complex [5] was 2 h and the half-life of the pBoLA-I complex [7] was 23 h.
Substance Tp5 87–95 epitope … (peptide) has a half-life of the pBoLA-I complex [8] of 18 h.
With Tp8 379–387 epitope […] (peptide) the half-life of the pBoLA-I complex [5] was 2 h and the half-life of the pBoLA-I complex [7] was 14 h.
Substance Tp9 199–228 epitope […] (peptide) has a half-life of the pBoLA-I complex [8] of 4 h.
